From US20260015399A1 (Boehringer Ingelheim, published 2026)
*1 amine or outer side, *2 acyl side, *3 side chain or, on linkers, in order; H or OH if unused. Side-chain parts run from the residue outwards. The star is where a group is joined. C18 diacid = O=C(O)CCCCCCCCCCCCCCCCC(=O)*; γGlu = O=C(O)[C@H](CCC(=O)[*:2])N[*:1]; Isovaleryl = CC(C)CC(=O)*; Ahx = NCCCCCC(=O)O

T1: human NPY2 receptor (human, UniProt P49146 1-381)
T1 construct: whole, on cells; also called hNPY2-R; hNPY2R
T1 sequence (looked up): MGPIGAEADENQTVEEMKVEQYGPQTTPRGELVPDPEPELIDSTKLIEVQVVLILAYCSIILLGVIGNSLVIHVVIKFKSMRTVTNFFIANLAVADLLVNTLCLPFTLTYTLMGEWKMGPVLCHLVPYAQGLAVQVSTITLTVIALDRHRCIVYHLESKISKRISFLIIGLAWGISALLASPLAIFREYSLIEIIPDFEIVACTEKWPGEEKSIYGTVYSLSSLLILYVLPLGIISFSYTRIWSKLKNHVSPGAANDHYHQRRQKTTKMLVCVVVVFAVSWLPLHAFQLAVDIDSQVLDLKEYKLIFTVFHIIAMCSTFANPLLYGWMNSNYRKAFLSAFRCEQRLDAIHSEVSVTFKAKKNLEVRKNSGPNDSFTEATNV

B1: Compound 141 (peptide)
peptide: Isovaleryl-APEK([Ahx-γGlu-C18 diacid])PEEDATPEELQSYYVSLRHYYNWLTRQRY-NH2
SMILES: CC(C)CC(=O)N[C@@H](C)C(=O)N1CCC[C@H]1C(=O)N[C@@H](CCC(=O)O)C(=O)N[C@@H](CCCCNC(=O)CCCCCNC(=O)CC[C@H](NC(=O)CCCCCCCCCCCCCCCCC(=O)O)C(=O)O)C(=O)N1CCC[C@H]1C(=O)N[C@@H](CCC(=O)O)C(=O)N[C@@H](CCC(=O)O)C(=O)N[C@@H](CC(=O)O)C(=O)N[C@@H](C)C(=O)N[C@H](C(=O)N1CCC[C@H]1C(=O)N[C@@H](CCC(=O)O)C(=O)N[C@@H](CCC(=O)O)C(=O)N[C@@H](CC(C)C)C(=O)N[C@@H](CCC(N)=O)C(=O)N[C@@H](CO)C(=O)N[C@@H](Cc1ccc(O)cc1)C(=O)N[C@@H](Cc1ccc(O)cc1)C(=O)N[C@H](C(=O)N[C@@H](CO)C(=O)N[C@@H](CC(C)C)C(=O)N[C@@H](CCCNC(=N)N)C(=O)N[C@@H](Cc1c[nH]cn1)C(=O)N[C@@H](Cc1ccc(O)cc1)C(=O)N[C@@H](Cc1ccc(O)cc1)C(=O)N[C@@H](CC(N)=O)C(=O)N[C@@H](Cc1c[nH]c2ccccc12)C(=O)N[C@@H](CC(C)C)C(=O)N[C@H](C(=O)N[C@@H](CCCNC(=N)N)C(=O)N[C@@H](CCC(N)=O)C(=O)N[C@@H](CCCNC(=N)N)C(=O)N[C@@H](Cc1ccc(O)cc1)C(N)=O)[C@@H](C)O)C(C)C)[C@@H](C)O
B2: Compound 142 (peptide)
peptide: Isovaleryl-APEK([Ahx-γGlu-C18 diacid])PEEDALPEEIQRYYVSLRHYYNWLTRQRY-NH2
SMILES: CC[C@H](C)[C@H](NC(=O)[C@H](CCC(=O)O)NC(=O)[C@H](CCC(=O)O)NC(=O)[C@@H]1CCCN1C(=O)[C@H](CC(C)C)NC(=O)[C@H](C)NC(=O)[C@H](CC(=O)O)NC(=O)[C@H](CCC(=O)O)NC(=O)[C@H](CCC(=O)O)NC(=O)[C@@H]1CCCN1C(=O)[C@H](CCCCNC(=O)CCCCCNC(=O)CC[C@H](NC(=O)CCCCCCCCCCCCCCCCC(=O)O)C(=O)O)NC(=O)[C@H](CCC(=O)O)NC(=O)[C@@H]1CCCN1C(=O)[C@H](C)NC(=O)CC(C)C)C(=O)N[C@@H](CCC(N)=O)C(=O)N[C@@H](CCCNC(=N)N)C(=O)N[C@@H](Cc1ccc(O)cc1)C(=O)N[C@@H](Cc1ccc(O)cc1)C(=O)N[C@H](C(=O)N[C@@H](CO)C(=O)N[C@@H](CC(C)C)C(=O)N[C@@H](CCCNC(=N)N)C(=O)N[C@@H](Cc1c[nH]cn1)C(=O)N[C@@H](Cc1ccc(O)cc1)C(=O)N[C@@H](Cc1ccc(O)cc1)C(=O)N[C@@H](CC(N)=O)C(=O)N[C@@H](Cc1c[nH]c2ccccc12)C(=O)N[C@@H](CC(C)C)C(=O)N[C@H](C(=O)N[C@@H](CCCNC(=N)N)C(=O)N[C@@H](CCC(N)=O)C(=O)N[C@@H](CCCNC(=N)N)C(=O)N[C@@H](Cc1ccc(O)cc1)C(N)=O)[C@@H](C)O)C(C)C
B3: Compound 143 (peptide)
peptide: Isovaleryl-APEK([Ahx-γGlu-C18 diacid])PEEDSTPEELQRYYVSLRHYYNWLTRQRY-NH2
SMILES: CC(C)CC(=O)N[C@@H](C)C(=O)N1CCC[C@H]1C(=O)N[C@@H](CCC(=O)O)C(=O)N[C@@H](CCCCNC(=O)CCCCCNC(=O)CC[C@H](NC(=O)CCCCCCCCCCCCCCCCC(=O)O)C(=O)O)C(=O)N1CCC[C@H]1C(=O)N[C@@H](CCC(=O)O)C(=O)N[C@@H](CCC(=O)O)C(=O)N[C@@H](CC(=O)O)C(=O)N[C@@H](CO)C(=O)N[C@H](C(=O)N1CCC[C@H]1C(=O)N[C@@H](CCC(=O)O)C(=O)N[C@@H](CCC(=O)O)C(=O)N[C@@H](CC(C)C)C(=O)N[C@@H](CCC(N)=O)C(=O)N[C@@H](CCCNC(=N)N)C(=O)N[C@@H](Cc1ccc(O)cc1)C(=O)N[C@@H](Cc1ccc(O)cc1)C(=O)N[C@H](C(=O)N[C@@H](CO)C(=O)N[C@@H](CC(C)C)C(=O)N[C@@H](CCCNC(=N)N)C(=O)N[C@@H](Cc1c[nH]cn1)C(=O)N[C@@H](Cc1ccc(O)cc1)C(=O)N[C@@H](Cc1ccc(O)cc1)C(=O)N[C@@H](CC(N)=O)C(=O)N[C@@H](Cc1c[nH]c2ccccc12)C(=O)N[C@@H](CC(C)C)C(=O)N[C@H](C(=O)N[C@@H](CCCNC(=N)N)C(=O)N[C@@H](CCC(N)=O)C(=O)N[C@@H](CCCNC(=N)N)C(=O)N[C@@H](Cc1ccc(O)cc1)C(N)=O)[C@@H](C)O)C(C)C)[C@@H](C)O
B4: Compound 144 (peptide)
peptide: Isovaleryl-APEK([Ahx-γGlu-C18 diacid])PEEDQTPEELQRYYVSLRHYYNWLTRQRY-NH2
SMILES: CC(C)CC(=O)N[C@@H](C)C(=O)N1CCC[C@H]1C(=O)N[C@@H](CCC(=O)O)C(=O)N[C@@H](CCCCNC(=O)CCCCCNC(=O)CC[C@H](NC(=O)CCCCCCCCCCCCCCCCC(=O)O)C(=O)O)C(=O)N1CCC[C@H]1C(=O)N[C@@H](CCC(=O)O)C(=O)N[C@@H](CCC(=O)O)C(=O)N[C@@H](CC(=O)O)C(=O)N[C@@H](CCC(N)=O)C(=O)N[C@H](C(=O)N1CCC[C@H]1C(=O)N[C@@H](CCC(=O)O)C(=O)N[C@@H](CCC(=O)O)C(=O)N[C@@H](CC(C)C)C(=O)N[C@@H](CCC(N)=O)C(=O)N[C@@H](CCCNC(=N)N)C(=O)N[C@@H](Cc1ccc(O)cc1)C(=O)N[C@@H](Cc1ccc(O)cc1)C(=O)N[C@H](C(=O)N[C@@H](CO)C(=O)N[C@@H](CC(C)C)C(=O)N[C@@H](CCCNC(=N)N)C(=O)N[C@@H](Cc1c[nH]cn1)C(=O)N[C@@H](Cc1ccc(O)cc1)C(=O)N[C@@H](Cc1ccc(O)cc1)C(=O)N[C@@H](CC(N)=O)C(=O)N[C@@H](Cc1c[nH]c2ccccc12)C(=O)N[C@@H](CC(C)C)C(=O)N[C@H](C(=O)N[C@@H](CCCNC(=N)N)C(=O)N[C@@H](CCC(N)=O)C(=O)N[C@@H](CCCNC(=N)N)C(=O)N[C@@H](Cc1ccc(O)cc1)C(N)=O)[C@@H](C)O)C(C)C)[C@@H](C)O
B5: Compound 148 (peptide)
peptide: Isovaleryl-APEK([Ahx-γGlu-C18 diacid])PEEDATPEELQRYYVTLRHYYNWLTRQRY-NH2
SMILES: CC(C)CC(=O)N[C@@H](C)C(=O)N1CCC[C@H]1C(=O)N[C@@H](CCC(=O)O)C(=O)N[C@@H](CCCCNC(=O)CCCCCNC(=O)CC[C@H](NC(=O)CCCCCCCCCCCCCCCCC(=O)O)C(=O)O)C(=O)N1CCC[C@H]1C(=O)N[C@@H](CCC(=O)O)C(=O)N[C@@H](CCC(=O)O)C(=O)N[C@@H](CC(=O)O)C(=O)N[C@@H](C)C(=O)N[C@H](C(=O)N1CCC[C@H]1C(=O)N[C@@H](CCC(=O)O)C(=O)N[C@@H](CCC(=O)O)C(=O)N[C@@H](CC(C)C)C(=O)N[C@@H](CCC(N)=O)C(=O)N[C@@H](CCCNC(=N)N)C(=O)N[C@@H](Cc1ccc(O)cc1)C(=O)N[C@@H](Cc1ccc(O)cc1)C(=O)N[C@H](C(=O)N[C@H](C(=O)N[C@@H](CC(C)C)C(=O)N[C@@H](CCCNC(=N)N)C(=O)N[C@@H](Cc1c[nH]cn1)C(=O)N[C@@H](Cc1ccc(O)cc1)C(=O)N[C@@H](Cc1ccc(O)cc1)C(=O)N[C@@H](CC(N)=O)C(=O)N[C@@H](Cc1c[nH]c2ccccc12)C(=O)N[C@@H](CC(C)C)C(=O)N[C@H](C(=O)N[C@@H](CCCNC(=N)N)C(=O)N[C@@H](CCC(N)=O)C(=O)N[C@@H](CCCNC(=N)N)C(=O)N[C@@H](Cc1ccc(O)cc1)C(N)=O)[C@@H](C)O)[C@@H](C)O)C(C)C)[C@@H](C)O
B6: Compound 149 (peptide)
peptide: Isovaleryl-APAK([Ahx-γGlu-C18 diacid])PEEDASPEESQRYYVSLRHYYNWLTRQRY-NH2
SMILES: CC(C)CC(=O)N[C@@H](C)C(=O)N1CCC[C@H]1C(=O)N[C@@H](C)C(=O)N[C@@H](CCCCNC(=O)CCCCCNC(=O)CC[C@H](NC(=O)CCCCCCCCCCCCCCCCC(=O)O)C(=O)O)C(=O)N1CCC[C@H]1C(=O)N[C@@H](CCC(=O)O)C(=O)N[C@@H](CCC(=O)O)C(=O)N[C@@H](CC(=O)O)C(=O)N[C@@H](C)C(=O)N[C@@H](CO)C(=O)N1CCC[C@H]1C(=O)N[C@@H](CCC(=O)O)C(=O)N[C@@H](CCC(=O)O)C(=O)N[C@@H](CO)C(=O)N[C@@H](CCC(N)=O)C(=O)N[C@@H](CCCNC(=N)N)C(=O)N[C@@H](Cc1ccc(O)cc1)C(=O)N[C@@H](Cc1ccc(O)cc1)C(=O)N[C@H](C(=O)N[C@@H](CO)C(=O)N[C@@H](CC(C)C)C(=O)N[C@@H](CCCNC(=N)N)C(=O)N[C@@H](Cc1c[nH]cn1)C(=O)N[C@@H](Cc1ccc(O)cc1)C(=O)N[C@@H](Cc1ccc(O)cc1)C(=O)N[C@@H](CC(N)=O)C(=O)N[C@@H](Cc1c[nH]c2ccccc12)C(=O)N[C@@H](CC(C)C)C(=O)N[C@H](C(=O)N[C@@H](CCCNC(=N)N)C(=O)N[C@@H](CCC(N)=O)C(=O)N[C@@H](CCCNC(=N)N)C(=O)N[C@@H](Cc1ccc(O)cc1)C(N)=O)[C@@H](C)O)C(C)C

Molecular target: T1, human NPY2 receptor
Assay: RLB: displacement of 125I-PYY(1-36) from hNPY2R membranes

| Binder | Ki [nM] |
| --- | --- |
| B1 | 8.17 |
| B2 | 3.97 |
| B3 | 3.42 |
| B4 | 9.76 |
| B5 | 2.85 |
| B6 | 3.97 |
